Assay results: US10501552B2, “Multivalent molecules comprising DR5-binding domains” (MacroGenics, Inc., priority 2015, dated 2019)
Blank lines part the entries; values can stand above or below the molecule they belong to.

What was measured:
[1] = test system: DR5-Fc fusion; assay: binding to immobilized DR5-Fc fusion in presence of TRAIL; parameters: species or system human; settings: for amount of immobilized biotinylated antibody: 2 μg/mL biotinylated, 1 μg/mL DR5-Fc fusion coat
Description: The amount of immobilized biotinylated antibody was assessed.

[2] = target: cynomolgus monkey DR5 (His-tagged); assay: Biacore analysis of binding kinetics; parameters: ka / kd: unit not given here; settings: tested as DR5×CD3 mAb 2 diabody
Description: Bispecific DR5×CD3 diabodies were incubated with His-tagged DR5 and the kinetics of binding was determined via Biacore analysis. […] FIG. 6, Panels A-D show the results for human DR5. FIG. 6, Panels E-H show the results for cynomolgus monkey DR5.

[3] = test system: COLO205; assay: […]-GLO cell viability assay with vorinostat; type: cell-based; settings: for synergy with vorinostat: 0.1 or 1 μM vorinostat; for Average % Ctrl: one day
Description: For the first study COLO205 cells were plated at 2×10^4 cells/well (in 96-well plates), and incubated overnight in F12/DMEM media supplemented with 10% FBS. […] Cell viability was determined using Promega […]-GLO® Luminescent Cell Viability Assay (Cat # G5430) essentially as described in the manufacturer's instructions to assay the amount of ATP present, which is a measure of the number of viable cells in the culture. Briefly, an […]-GLO® Reagent was added to the wells and mixed for two minutes to induce lysis and the luminescence was read in a in PerkinElmer EnVision multilabel plate reader.
Cell viability of cells treated with the test articles is normalized to the corresponding negative control (medium±vorinostat) which is set to 100% and reported in Table 12 as % of control for each test agent alone or % control for each test agent in combination with vorinostat. % of control values less than 100% indicate a reduction in viability and reflect the cytotoxicity of the test article alone or in combination with vorinostat.
The Net Gain (Average % Growth Inhibition)=% Medium Ctrl (10% FBS)−% Medium Ctrl (1/10 μM vorinostat), and represents increased cytotoxicity of the test article in combination with vorinostat over cells treated with vorinostat alone.

[4] = test system: ES2; assay: […]-GLO cell viability assay with vorinostat; type: cell-based; settings: ES2 (Ovary); 1 μg/ml + 10 μM Vorinostat
[5] = test system: MDA-MB-175VII; assay: […]-GLO cell viability assay with vorinostat; type: cell-based; settings: MDA-MB-175VII (Breast); 1 μg/ml + 1 μM Vorinostat
[6] = test system: Calu3; assay: […]-GLO cell viability assay with vorinostat; type: cell-based; settings: Calu3 (Lung); 1 μg/ml + 1 μM Vorinostat
[7] = Vorinostat 0 μM, % Medium Ctrl (10% FBS), 10 ng/ml tetravalent molecule or 1 μg/ml DR5 mAb
[8] = Vorinostat 0.1 μM, normalized to medium + vorinostat
[9] = Vorinostat 1 μM, normalized to medium + vorinostat

Chain of DR5-Fc fusion (as listed by the source): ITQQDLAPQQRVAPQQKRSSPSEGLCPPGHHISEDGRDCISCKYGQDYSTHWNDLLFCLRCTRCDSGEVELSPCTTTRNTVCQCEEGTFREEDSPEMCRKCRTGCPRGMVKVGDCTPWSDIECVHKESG

effect of histidine tagged TRAIL on amount bound to immobilized DR5-Fc [1]: not affected | amount of immobilized biotinylated antibody ([1]; 20 μg/mL TRAIL-His): 2.052 | amount of immobilized biotinylated antibody ([1]; Buffer): 2.052 | Kd [2]: 0.42 nM | ka [2]: 2.4 × 10^5 | kd [2]: 1.0 × 10^−4
B1: DR5 mAb 2: murine anti-human DR5 monoclonal antibody; VL SEQ ID NO:13, VH SEQ ID NO:18 (antibody, listed as Mus musculus, V domains shown)
VH: KVQLQQSGAELVKPGASVKLSCKASGYTFTEYILHWVKQKSGQGLEWIGWFYPGNNNIKYNEKFKDKATLTADKSSSTVYMELSRLTSEDSAVYFCARHEQGPGYFDYWGQGTTLTVSS
VL: DIVMTQSHKFMSTSVGDRVSITCKASQDVNTAVAWYQQKPGQSPKLLIYWASTRHTGVPDRFTGSGSGTDYTLTIKSVQAEDLTLYYCQQHYITPWTFGGGTKLEIK
modifications: (1)..(119) Anti-DR5 Antibody mAb 2 Heavy Chain Variable Region; (1)..(107) Anti-DR5 Antibody mAb 2 Light Chain Variable Region
synergy with vorinostat [3]: did not synergize | Average % Ctrl [3, 7]: 96.4% | Net Gain (Average % Growth Inhibition) ([3]; Vorinostat 0.1 μM): 0% | Average % Ctrl [3, 8]: 96.5% | Net Gain (Average % Growth Inhibition) ([3]; Vorinostat 1 μM): 1% | Average % Ctrl [3, 9]: 95.5% | Net Gain (Average % Growth Inhibition) [4]: 4.17% | Net Gain (Average % Growth Inhibition) [5]: 0.95% | Net Gain (Average % Growth Inhibition) [6]: 0.11%

effect of histidine tagged TRAIL on amount bound to immobilized DR5-Fc [1]: not affected | amount of immobilized biotinylated antibody ([1]; 20 μg/mL TRAIL-His): 1.939 | amount of immobilized biotinylated antibody ([1]; Buffer): 2.118 | Kd [2]: 32.5 nM | ka [2]: 4.0 × 10^6 | kd [2]: 1.3 × 10^−1
B2: DR5 mAb 1: anti-human DR5 monoclonal antibody; VL SEQ ID NO:3, VH SEQ ID NO:8 (antibody, listed as Mus musculus, V domains shown)
VH: EVKFLESGGGLVQPGGSLKLSCVASGFDFSRYWMSWVRQAPGKGLEWIGEINPDSNTINYTPSLKDKFIISRDNAKNTLYLQMTKVRSEDTALYYCTRRAYYGNPAWFAYWGQGTLVTVSS
VL: DIVLTQSPASLAVSLGQRATISCRASKSVSSSGYSYMHWYQQKPGQPPKVLIFLSSNLDSGVPARFSGSGSGTDFTLNIHPVEDGDAATYYCQHSRDLPPTFGGGTKLEIK
modifications: (1)..(121) Anti-DR5 Antibody mAb 1 Heavy Chain Variable Region; (1)..(111) Anti-DR5 Antibody mAb 1 Light Chain Variable Region
synergy with vorinostat [3]: did not synergize | Average % Ctrl [3, 7]: 96.8% | Net Gain (Average % Growth Inhibition) ([3]; Vorinostat 0.1 μM): 0% | Average % Ctrl [3, 8]: 96.4% | Net Gain (Average % Growth Inhibition) ([3]; Vorinostat 1 μM): 3% | Average % Ctrl [3, 9]: 93.3% | Net Gain (Average % Growth Inhibition) [4]: 4.17% | Net Gain (Average % Growth Inhibition) [5]: 0.95% | Net Gain (Average % Growth Inhibition) [6]: 0.11%
